Measured values: article PMC4797282 (Nucleic Acids Research, 2016)

Biological target: the molecule itself
Assay: SEC-MALS

B1: CpMgm101-NoTag (untagged full-length mature Candida parapsilosis Mgm101) (natural protein, UniProt G8B839 30-266, looked up)
chain: VPKTASAKTTSKLAPSITTEDEVAEQDPSLQEPQSATSTASFAFHDAPPETRSVLNSSTNNNIDWSDSYHGLGSQPFSREIADILLAPIKDQDIEIKPDGLLYLPEIKYRRILNKAFGPGGWGLVPRTESLITKSQISREYGLICHGRLISIARGEQDYFGGEEKVTTALEGCKSNALMRCCKDLGIASELWDPGFIRKWKAKYCEEVFVEHVVNKKKKKLWKLKSNKKIEYPYKQL
stoichiometry N: 3
